Laboratory results reported in paper PMC10935766 (2024).
Read-outs that look alike come from different tables or passages of the source. Non-standard residues stand in square brackets, D forms with d. No end group written: not given here. pY = N[C@@H](Cc1ccc(OP(=O)(O)O)cc1)C(=O)O

Columns and labels:
E6AP AZUL (Homo sapiens) [1] = molecular target: E6AP AZUL (Homo sapiens) (UniProt Q05086); experiment: ITC; conditions: cited from earlier work
E6AP AZUL (Homo sapiens) [2] = molecular target: E6AP AZUL (Homo sapiens) (UniProt Q05086); experiment: SPR; conditions: cited from earlier work
E6AP AZUL (Homo sapiens) [3] = molecular target: E6AP AZUL (Homo sapiens) (UniProt Q05086); conditions: cited from earlier work
E6AP AZUL 24-87 [4] = molecular target: T1, E6AP AZUL 24-87 (Homo sapiens, UniProt Q05086); experiment: fluorescence competition (100 nM S358C-acrylodan:AZUL)
T1 chain: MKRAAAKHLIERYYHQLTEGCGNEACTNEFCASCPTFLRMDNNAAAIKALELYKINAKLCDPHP

E6AP AZUL 24-87 [5] = molecular target: T1, E6AP AZUL 24-87; experiment: fluorescence competition (10 nM S337C-Atto610:AZUL)
E6AP AZUL 24-87 [6] = molecular target: T1, E6AP AZUL 24-87; experiment: fluorescence competition (50 nM S358C-acrylodan, 10 nM AZUL)
E6AP AZUL 24-87 [7] = molecular target: T1, E6AP AZUL 24-87; experiment: fluorescence competition (25 nM S337C-Atto610:AZUL)
E6AP AZUL 24-87 [8] = molecular target: T1, E6AP AZUL 24-87; experiment: fluorescence competition (25 nM S358C-acrylodan:AZUL)
E6AP AZUL 24-87 [9] = molecular target: T1, E6AP AZUL 24-87; experiment: ITC
E6AP AZUL 24-87 [10] = molecular target: T1, E6AP AZUL 24-87; experiment: fluorescence
E6AP AZUL 24-87 [11] = molecular target: T1, E6AP AZUL 24-87; experiment: fluorescence (dual probe)

For Rpn10 RAZUL (from UniProt P55036), the Kd (E6AP AZUL (Homo sapiens) [1]) is given as 8.1 nM and the Kd (E6AP AZUL (Homo sapiens) [2]) is given as 11.6 nM.

In the case of Rpn10 322-366 (from UniProt P55036), the Kd (E6AP AZUL (Homo sapiens) [3]) is given as 189 nM.

With EEDDYDVMQDPEFLQSVLENLPGVDPNNEAIRNAMGSLASQATKD [Rpn10 RAZUL peptide 322-366] the Ki (E6AP AZUL 24-87 [4]) was 18200 nM, the Ki (E6AP AZUL 24-87 [5]) was 664 nM and the Ki (E6AP AZUL 24-87 [6]) was 28.5 nM. For the same molecule, the Ki (E6AP AZUL 24-87 [7]) was 780 nM and the Ki (E6AP AZUL 24-87 [8]) was 1260 nM.

B1: Rpn10 RAZUL S361C 305-377 (protein)
chain: SADIDASSAMDTSEPAKEEDDYDVMQDPEFLQSVLENLPGVDPNNEAIRNAMGSLACQATKDGKKDKKEEDKK
In the case of B1, the Kd (E6AP AZUL 24-87 [9]) is reported as 6.9 nM.

B2: Rpn10 RAZUL S358C 305-377 (protein)
chain: SADIDASSAMDTSEPAKEEDDYDVMQDPEFLQSVLENLPGVDPNNEAIRNAMGCLASQATKDGKKDKKEEDKK
For B2, the Kd (E6AP AZUL 24-87 [9]) was less than 30 nM.

B3: Rpn10 RAZUL S358C-acrylodan 305-377 (protein)
chain: SADIDASSAMDTSEPAKEEDDYDVMQDPEFLQSVLENLPGVDPNNEAIRNAMGSLASQATKDGKKDKKEEDKK
modifications: S358C labeled with acrylodan
For B3, the Kd (E6AP AZUL 24-87 [10]) was roughly 18 nM and the Kd (E6AP AZUL 24-87 [11]) was 2.97 nM.

B4: Rpn10 RAZUL S337C-Atto610 305-377 (protein)
chain: SADIDASSAMDTSEPAKEEDDYDVMQDPEFLQSVLENLPGVDPNNEAIRNAMGSLASQATKDGKKDKKEEDKK
modifications: S337C labeled with Atto610
In the case of B4, the Kd (E6AP AZUL 24-87 [11]) is reported as 16.3 nM.

B5: Rpn10 RAZUL S337C-acrylodan 305-377 (protein)
chain: SADIDASSAMDTSEPAKEEDDYDVMQDPEFLQSVLENLPGVDPNNEAIRNAMGSLASQATKDGKKDKKEEDKK
modifications: S337C labeled with acrylodan
Work on B5 yielded a Kd (E6AP AZUL 24-87 [9]) of less than 35 nM.

B6: Rpn10 RAZUL S337C 305-377 (protein)
chain: SADIDASSAMDTSEPAKEEDDYDVMQDPEFLQCVLENLPGVDPNNEAIRNAMGSLASQATKDGKKDKKEEDKK
In the case of B6, the Kd (E6AP AZUL 24-87 [9]) is reported as less than 30 nM.

In the case of EEDD[pY]DVMQDPEFLQSVLENLPGVDPNNEAIRNAMGSLASQATKD [Rpn10 RAZUL peptide Y326p 322-366], the Ki (E6AP AZUL 24-87 [6]) is reported as 42.6 nM.
